Where “and” joins values, the source holds several entries; their conditions need not be identical. Equal entries are not always repeated.
Molecular target: nucleosome containing the 193-bp Widom 601 DNA (24-bp linker DNAs at both ends) (human) (UniProt P04908)
Test: mass photometry; 193-bp 601 nucleosome (1 µM) and DEK (2 µM) in 18 mM Tris-HCl pH 7.5, 60 mM NaCl, overnight at room temperature; diluted 1:40 for recording

stoichiometry N (DEK molecules per nucleosome): 1 and 2
Substance: recombinant human DEK protein (wild type) (from UniProt P35659 1-375) (natural protein)
